Assay results as given in patent publication CN101407544A.

Assays:
[1] = molecular target: T1, 重组人GP73蛋白 His-GP73 (recombinant human Golgi protein 73 fragment with His tag, expressed in E. coli from pET-28-a(+)) (human) (UniProt Q8NBJ4); experiment: double antibody sandwich ELISA: 6A2 (1 μg/ml) capture, His-GP73 standard, rabbit anti-GP73 serum (1:1000) detection
T1 sequence (looked up): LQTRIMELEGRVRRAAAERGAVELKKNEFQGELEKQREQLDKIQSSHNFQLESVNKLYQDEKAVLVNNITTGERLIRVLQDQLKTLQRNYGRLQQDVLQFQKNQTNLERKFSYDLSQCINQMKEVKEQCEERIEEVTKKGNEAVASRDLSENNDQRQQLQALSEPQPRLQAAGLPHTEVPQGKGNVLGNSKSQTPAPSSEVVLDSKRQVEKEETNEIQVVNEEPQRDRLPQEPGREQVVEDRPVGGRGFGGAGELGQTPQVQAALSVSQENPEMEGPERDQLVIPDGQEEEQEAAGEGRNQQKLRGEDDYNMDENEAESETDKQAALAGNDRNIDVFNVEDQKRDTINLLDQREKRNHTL

[2] = molecular target: T2, GP73 in human prostatic hyperplasia tissue sections (前列腺增生组织石蜡切片中的GP73) (human) (UniProt Q8NBJ4); experiment: immunohistochemistry on paraffin sections
T2 sequence (looked up): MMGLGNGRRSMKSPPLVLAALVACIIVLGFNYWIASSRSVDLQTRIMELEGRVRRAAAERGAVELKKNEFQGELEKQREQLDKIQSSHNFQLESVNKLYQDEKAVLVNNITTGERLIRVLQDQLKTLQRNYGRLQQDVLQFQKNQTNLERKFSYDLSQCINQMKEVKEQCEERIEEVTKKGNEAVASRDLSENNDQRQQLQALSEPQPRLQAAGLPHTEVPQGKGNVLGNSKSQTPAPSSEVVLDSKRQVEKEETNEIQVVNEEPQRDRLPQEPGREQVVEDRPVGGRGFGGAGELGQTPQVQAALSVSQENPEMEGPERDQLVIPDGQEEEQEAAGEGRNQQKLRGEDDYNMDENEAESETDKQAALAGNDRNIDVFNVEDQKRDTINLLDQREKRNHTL

最低检测限 (lowest detection limit of the sandwich ELISA) [1]: 0.25 ng/mL
效价 (titer in immunohistochemistry) (titer (1:x dilution)) [2]: 1000
B1: 抗GP73单克隆抗体6A2 (anti-GP73 mAb) (antibody, part only; not given: light chain variable region, V domains shown, part only)
VH: DFNIKDTYMHWMKQRPEQGLEWIGRIDPANGNTKYDPKFQGKATITTDTSSNTAYLQLSSLTSEDTAVYYCAREDYGNLWYFDV
